“Also recorded” adds a separate entry of the source. Read-outs that look alike come from different tables or passages of the source. Blank lines part the entries; values can stand above or below the substance they belong to.
What was measured:
[1] = test system: human GLP-1 overexpressed cell line (GLP-1R/CHO); assay: Neutralizing capacity of detected anti-HM11260C antibody: inhibition of cAMP induction; type: cell-based; details: for Neutralizing Ab: SD rat serum
Method: (§1) Measurement sensitivity in the rat serum was 3.1 ng/ml, and the measurement sensitivity in monkey serum was 12.5 ng/ml. To evaluate the neutralizing capacity against HM11260C of detected anti HM11260C antibody, serum samples and HM11260C were added to the human […] cell line (GLP-1R/CHO) and then the inhibition rate of cAMP-induction was measured.

[2] = Production of antibodies in Cynomolgus monkey, 26-week administration (bridging ELISA); type: in vivo
Method: The blood was taken before and during administration, at the 12th, 19th and 26th week, and at the end of the recovery period, the serum was separated from this. It was determined whether to produce the antibodies against the insulinotropic peptide.
(§2) In order to detect whether the conjugate of Example 3 has produced an anti-drug antibody (ADA) in the body of rat or Cynomolgus monkey, the conjugate was examined by the bridging ELISA method. The biotinylated conjugate of Example 3 was bound to the 96-well microplate in which streptavidin was coupled to the bottom thereof, and washed with water. Digoxigenin(DIG)-labeled conjugate of Example 3 (hereinafter, HM11260C) was added along with the serum samples of rat or monkey to react and then washed with water. Then, the horseradish peroxidase-coupled anti-DIG antibody (anti-DIG-POD antibody) was added and developed by TMB substrate (3,3′,5,5′-tetramethylbenzidine substrate).
as §1

[3] = Production of antibodies against long-acting insulinotropic peptide in normal rats, 26-week administration (bridging ELISA); type: in vivo, Sprague Dawley rat; details: for % positive / Positive (animals with antibody) / Time point (of positive antibody finding): SD rat
Method: The blood was collected before and during administration, at the 13rd, 19th and 26th week, and at the end of the recovery period, the serum was separated from this. It was determined on whether to produce the antibodies against the insulinotropic peptide.
as §2, §1

[4] = test system: peripheral blood mononuclear cells (PBMC) of the donor, CD8+ T cells removed
[5] = clinical, literature; cited from earlier work
[6] = test system: peripheral blood mononuclear cells (PBMC) of the donor, CD8+ T cells removed; remark: listed apart in the source
[7] = Total of all groups incl. vehicle, n=40
[8] = Total of all groups incl. vehicle, n=200

Substance: Imidazo-Acetyl Exendin-4 (Lys27)-Immunoglobulin Fc Conjugate [HM11260C]
Neutralizing Ab ([1]; Total of all groups): 0
Neutralizing Ab ([1]; high dose): 0
Neutralizing Ab ([1]; low dose): 0
Neutralizing Ab ([1]; mid dose): 0
neutralizing ability of the detected antibodies ([1]; sera of the two antibody-positive rats): not neutralizing antibodies; also recorded: no neutralizing ability
% positive [2, 7]: 0%
Positive/total [2, 7]: 0
production of antibodies ([2]; all subjects): no production of the antibodies in all subjects was detected
% positive ([2]; high dose, n=12): 0%
% positive ([2]; low dose, n=8): 0%
% positive ([2]; mid dose, n=8): 0%
Positive/total ([2]; s.c. once a week 26 weeks + 4 weeks recovery, high dose, n=12): 0
Positive/total ([2]; s.c. once a week 26 weeks + 4 weeks recovery, low dose, n=8): 0
Positive/total ([2]; s.c. once a week 26 weeks + 4 weeks recovery, mid dose, n=8): 0
% positive ([3]; 26 weeks, high dose, n=60): 1.6%
% positive ([3]; 26 weeks, low dose, n=40): 2.5%
% positive ([3]; 26 weeks, mid dose, n=40): 0%
Positive (animals with antibody) ([3]; s.c. once a week 26 weeks + 4 weeks recovery, high dose, n=60): 1
Positive (animals with antibody) ([3]; s.c. once a week 26 weeks + 4 weeks recovery, low dose, n=40): 1
Positive (animals with antibody) ([3]; s.c. once a week 26 weeks + 4 weeks recovery, mid dose, n=40): 0
% positive [3, 8]: 1.0%
Positive (animals with antibody) [3, 8]: 2
Time point (of positive antibody finding) ([3]; high dose): recovery
Time point (of positive antibody finding) ([3]; low dose): Week 13
subjects in which antibodies were detected ([3]; among 160 rats administered with the drug): two

Substance: Keyhole Limpet Haemocyanin [KLH, reference compound]
Proliferation and ELISpot % [4]: 80%

Substance: Lixisenatide
patients who produced an antibody [5]: 60-71%

Frequency of Response (%) [6]: 12%
Frequency of Response (%) [4]: 12%
Substance: imidazoacetyl-exendin-4 [CA Exendin-4]
Proliferation and ELISpot % [4]: 10%

Reference: patent US20220118103A1, “METHOD FOR DECREASING IMMUNOGENICITY OF PROTEIN AND PEPTIDE” (HANMI PHARM. CO., LTD., priority 2014, published 2022)
